# “Also recorded” adds a separate entry of the source.
# B1: AtLURE1.2: mature form of AtLURE1.2 (residues 20–90), defensin-like cysteine-rich peptide expressed in insect cells (protein)
# chain: TLINGSSDEERTYSFSPTTSPFDPRSLNQELKIGRIGYCFDCARACMRRGKYIRTCSFERKLCRCSISDIK
# modifications: left off: His6, N-terminal, cleaved | SUMO, N-terminal, cleaved
# notes: mature form of AtLURE1.2 (residues 20–90), defensin-like cysteine-rich peptide expressed in insect cells
# Experiments:
# [1] = test system: prk6 pollen tubes transformed with PRK6 D234A; test: Wavy assay, prk6 pollen tubes transformed with D234A PRK6; type: cell-based, Arabidopsis; conditions: 250 nM wild-type AtLURE1.2 in medium
# Experimental: Attraction activities of mutant AtLURE1.2 peptides were examined for semi-in-vivo pollen tubes growing through cut, pollinated pistils by gelatin-beads assay and wavy assay, [20]. For the gelatin-beads assay, pollen tubes were grown on solid pollen germination medium poured into a mold made with 1-mm thick silicone rubber and cover glasses. After hand-pollination, the topside cover glass was removed and the medium was covered with hydrated silicone oil (KF-96–100CS; Shin-Etsu). Attraction of pollen tubes toward the peptide was evaluated using AtLURE1 peptide containing gelatine beads under an inverted microscope (IX71, Olympus) equipped with a micro-manipulator (Narishige). For the AtLURE1-responsive wavy assay, the purified AtLURE1.2 peptide was added to solid pollen germination medium, which was melted at 70 °C and then cooled to a certain degree. The mixture was mixed by vortexing and poured into the mold. Pollen tubes of each genotype were grown through cut styles, as mentioned above. Each peptide (25 μM in 10 mM Bis-Tris (pH 6.0) and 100 mM NaCl) was diluted to 250 nM by cultivation medium in both assays. […]
# pollen tubes. Fluorescence is from mRuby2 fused to the C-terminal of PRK6 receptors, showing that all of mutant PRK6 receptors localize normally to the plasma membrane of the pollen tube tip. […]
# SUMO-tagged MDIS1LRR = test: Gel filtration assay with SUMO-tagged MDIS1^LRR with or without MIK1^LRR; type: binding; conditions: in the presence or absence of MIK1LRR, peer review file
# Text: We thank the reviewer for his/her high evaluation of our work and constructive […]
# We have conducted more experiments including functional analysis of […]
# bind to either MIK1 or MIK2 in their binding experiments. Considering the importance of genetic data published by other groups, I recommend that the authors conduct more binding experiments using MDIS1, MDIS2, and mixtures thereof with […]
# interaction of AtLURE1.2 with the extracellular LRR domain of MIK1 (MIK1LRR) or MIK2 (MIK2LRR). All the proteins were purified from insect cells. As shown in […]
# AtLURE1.2 in the assays, because the AtLURE1.2 and MIK1LRR or MIK2LRR were well separated in gel filtration. This is strikingly different from PRK6LRR with AtLURE1.2, which co-migrated when tested using the same assay. To further test interaction of AtLURE1.2 with MIK1LRR or MIK2LRR, we used ITC to quantify the binding affinity between the insect cell-generated AtLURE1.2 and MIK1LRR or […]
# binding of AtLURE1.2 to MIK1LRR or MIK2LRR (Supplementary Fig. 6). In contrast to […]
# into the MIK1LRR- or MIK2LRR-containing cell (Supplementary Fig. 6).
# We then tested whether LURE1.2 interacts with MIK1LRR or MIK2LRR in the presence of the extracellular LRR domain of MDIS1 (MDIS1LRR). We therefore tried to purify MDIS1LRR from insect cells. However, although several constructs had been tested, expression of MDIS1LRR protein alone was undetectable. […]
molecule,measurement,setting,value
B1,wavy and branched pollen tube behavior,[1],branched behavior is not observed; also recorded: greatly compromised
same,interaction in gel filtration,SUMO-tagged MDIS1LRR,no interaction
same,interaction in gel filtration,SUMO-tagged MDIS1LRR; listed as LURE1.2,well separated from the two proteins

# Source: article PMC5673899, “Structural basis for receptor recognition of pollen tube attraction peptides” (Nature Communications, 2017)
